Data set [1] concerns the target T1, fluorogenic peptide substrate IX, Mca-K-P-L-G-L-Dpa-A-R-NH2.
T1 chain: KPLGLAR

Data set [2] concerns the target serum-derived protein (Zucker rat).

B1: wild-type human matrix metalloprotease 1 (hMMP-1), purified and trypsin-activated (protein)
chain: FVLTEGNPRWEQTHLTYRIENYTPDLPRADVDHAIEKAFQLWSNVTPLTFTKVSEGQADIMISFVRGDHRDNSPFDGPGGNLAHAFQPGPGIGGDAHFDEDERWTNNFREYNLHRVAAHELGHSLGLSHSTDIGALMYPSYTFSGDVQLAQDDIDGIQAIYGRSQNPVQPIGPQTPKACDSKLTFDAITTIRGEVMFFKDRFYMRTNPFYPEVELNFISVFWPQLPNGLEAAYEFADRDEVRFFKGNKYWAVQGQNVLHGYPKDIYSSFGFPRTVKHIDAALSEENTGKTYFFVANKYWRYDEYKRSMDPGYPKMIAHDFPGIGHKVDAVFMKDGFFYFFHGTRQYKFDPKTKRILTLQKANSWFNCRKN
For the protein B1, in data set [1], the KM (µM), enzyme kinetics at 1 mM Ca^2+, 37° C. worked out at 20.6 µM and the KM (µM), enzyme kinetics at 10 mM Ca^2+, 37° C. turned out to be 21.1 µM. In addition, the “enzymatic activity against the fluorogenic peptide substrate after incubation in 10% Zucker rat serum, 1 mM Ca^2+, 25° C.” value in data set [2] is reported as “The activity of MMP-1 in 1 mM Ca^2+ buffer was unaffected by incubation with serum over the course of the study”.

B2: MMP-1 mutant GVSK (G159V/S208K), purified and trypsin-activated (protein)
chain: FVLTEGNPRWEQTHLTYRIENYTPDLPRADVDHAIEKAFQLWSNVTPLTFTKVSEGQADIMISFVRGDHRDNSPFDGPVGNLAHAFQPGPGIGGDAHFDEDERWTNNFREYNLHRVAAHELGHSLGLKHSTDIGALMYPSYTFSGDVQLAQDDIDGIQAIYGRSQNPVQPIGPQTPKACDSKLTFDAITTIRGEVMFFKDRFYMRTNPFYPEVELNFISVFWPQLPNGLEAAYEFADRDEVRFFKGNKYWAVQGQNVLHGYPKDIYSSFGFPRTVKHIDAALSEENTGKTYFFVANKYWRYDEYKRSMDPGYPKMIAHDFPGIGHKVDAVFMKDGFFYFFHGTRQYKFDPKTKRILTLQKANSWFNCRKN
In the case of B2, in data set [1], the KM (µM), enzyme kinetics at 1 mM Ca^2+, 37° C. stood at 16.5 µM and the KM (µM), enzyme kinetics at 10 mM Ca^2+, 37° C. came out at 11 µM. Also, in data set [2], the “enzymatic activity lost after 15 minutes in 10% Zucker rat serum, 1 mM Ca^2+, 25° C.” value is “After 15 minutes of serum incubation, one-third of the activity of GVSK in 1 mM Ca^2+ was lost”; the “enzymatic activity remaining after 30 minutes in 10% Zucker rat serum, 1 mM Ca^2+, 25° C.” value is “less than 50% of activity remained after 30 minutes”; the “enzymatic activity remaining after 2 hours in 10% Zucker rat serum, 1 mM Ca^2+, 25° C.” value is listed as “only approximately 17% of the activity of GVSK in 1 mM Ca^2+ remained”; the “enzymatic activity remaining after 2 hours in 10% Zucker rat serum, 10 mM Ca^2+, 25° C.” value is reported as “approximately 74% of the original activity remaining by the 2 hour time point”.

The values above are taken from patent publication US20140219992.
